Results on 7 molecules are retold here after publication PMC5883317 (Journal of Molecular and Cellular Cardiology, 2018).

Test [1] addresses F-actin (rabbit skeletal actin) (rabbit) (UniProt P68135).
Test [2] concerns the target T1, wildtype myosin regulatory light chain (WT-RLC), unlabeled recombinant (human, UniProt P10916 1-166).
T1 sequence (looked up): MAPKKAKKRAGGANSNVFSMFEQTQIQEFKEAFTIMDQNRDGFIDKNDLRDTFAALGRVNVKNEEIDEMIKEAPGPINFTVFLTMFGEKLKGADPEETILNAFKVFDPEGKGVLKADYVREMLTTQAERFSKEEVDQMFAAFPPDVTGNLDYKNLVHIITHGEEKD
As to the kind of experiment: other fluorescence titration.

Test [3] addresses RLC-depleted isolated porcine β-cardiac myosin (porcine) (UniProt P79293). As to the kind of experiment: reconstitution of RLC-depleted myosin, SDS-PAGE densitometry.
Test [4] deals with cardiac myosin binding protein-C fragment spanning domains C0 to C2 (C0C2) (UniProt Q14896 1-452). In words: MST.
Chain of cardiac myosin binding protein-C fragment spanning domains C0 to C2 (C0C2) (Q14896 1-452): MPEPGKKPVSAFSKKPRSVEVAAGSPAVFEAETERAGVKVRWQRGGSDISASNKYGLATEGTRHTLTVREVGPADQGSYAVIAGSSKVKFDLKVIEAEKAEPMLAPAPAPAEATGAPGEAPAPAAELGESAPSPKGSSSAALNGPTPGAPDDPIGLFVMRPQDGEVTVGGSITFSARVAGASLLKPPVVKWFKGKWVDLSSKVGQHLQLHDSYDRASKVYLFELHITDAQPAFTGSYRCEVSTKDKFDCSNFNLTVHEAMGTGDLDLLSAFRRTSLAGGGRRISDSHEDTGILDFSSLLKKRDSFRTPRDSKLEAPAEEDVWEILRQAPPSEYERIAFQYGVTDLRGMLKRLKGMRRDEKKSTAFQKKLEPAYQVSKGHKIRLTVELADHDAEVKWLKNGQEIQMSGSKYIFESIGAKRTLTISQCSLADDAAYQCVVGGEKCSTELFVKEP

For orientation: Kd means the free concentration of one partner at which half of the binding sites on the other are occupied at equilibrium, for simple one-to-one binding.

Regarding “porcine β-cardiac myosin fully reconstituted with WT-RLC (from UniProt P79293 1-1935; P10916 1-166) (complex)”, in test [1], the KM for F-actin of the F-actin activated myosin ATPase (Michaelis-Menten fit) was 1.5 µM.
With “porcine β-cardiac myosin fully reconstituted with R58Q-RLC (from UniProt P79293 1-1935; P10916 1-166) (complex)”, the KM for F-actin of the F-actin activated myosin ATPase (Michaelis-Menten fit) in test [1] was 2.91 µM.

B1: RLC binding site peptide of the human β-cardiac myosin heavy chain (amino acids 805–837) (peptide)
peptide: ERRDSLLVIQWNIRAFMGVKNWPWMKLYFKIK
On to B1, for which the Kd in test [2] was less than 0.5 µM.

B2: wildtype myosin regulatory light chain (WT-RLC), unlabeled recombinant (natural protein)
chain: MAPKKAKKRAGGANSNVFSMFEQTQIQEFKEAFTIMDQNRDGFIDKNDLRDTFAALGRVNVKNEEIDEMIKEAPGPINFTVFLTMFGEKLKGADPEETILNAFKVFDPEGKGVLKADYVREMLTTQAERFSKEEVDQMFAAFPPDVTGNLDYKNLVHIITHGEEKD
In turn, B2 showed a Kd in test [3] of 4 µM.

B3: myosin regulatory light chain with the hypertrophic cardiomyopathy mutation R58Q (R58Q-RLC), unlabeled recombinant (natural protein)
chain: MAPKKAKKRAGGANSNVFSMFEQTQIQEFKEAFTIMDQNRDGFIDKNDLRDTFAALGQVNVKNEEIDEMIKEAPGPINFTVFLTMFGEKLKGADPEETILNAFKVFDPEGKGVLKADYVREMLTTQAERFSKEEVDQMFAAFPPDVTGNLDYKNLVHIITHGEEKD
Consider B3, for which, in test [3], the Kd amounted to 4 µM.

B4: Alexa 647 labelled WT-RLC (natural protein, human, UniProt P10916 1-166, looked up)
chain: MAPKKAKKRAGGANSNVFSMFEQTQIQEFKEAFTIMDQNRDGFIDKNDLRDTFAALGRVNVKNEEIDEMIKEAPGPINFTVFLTMFGEKLKGADPEETILNAFKVFDPEGKGVLKADYVREMLTTQAERFSKEEVDQMFAAFPPDVTGNLDYKNLVHIITHGEEKD
modifications: Alexa 647 (labelled with Alexa 647-NHS; site not stated)
For the molecule B4, the Kd in test [4] came out at 8.6 µM.

B5: Alexa 647 labelled R58Q-RLC (natural protein, human, UniProt P10916 1-166, looked up)
chain: MAPKKAKKRAGGANSNVFSMFEQTQIQEFKEAFTIMDQNRDGFIDKNDLRDTFAALGQVNVKNEEIDEMIKEAPGPINFTVFLTMFGEKLKGADPEETILNAFKVFDPEGKGVLKADYVREMLTTQAERFSKEEVDQMFAAFPPDVTGNLDYKNLVHIITHGEEKD
modifications: Alexa 647 (labelled with Alexa 647-NHS; site not stated)
Turning to B5, in test [4], the dissociation constant (Kd) turned out to be 9.7 µM.
